From the RNAGym collection of RNA variant scans (doi:10.7554/elife.90254)

B1: LINE1-full (parent)
chain: UACGUAGGUGGUUUUCCCCUGAUAGUGCUAAGGGGGCCUGGAAGUUUGGACUGGGCAGAGCUCAACACAGCGUGGCAAAGUGGCUGUGGCUAGACUGCCUCUCUGGAUUCCUCGUCACUCAGCAGGGCAUCUCUGAGAGAAAUGCC

Variants of: B1
Experiment: self-cleavage, relative activity (ratio to wild type); higher = more cleavage; in vitro, sequencing; the parent is a self-cleaving ribozyme

Question: Which self-cleavage does the source give for U102C U143G here?
Answer: 1.59

Question: For U102C U143C, which self-cleavage is on record?
Answer: 1.09

Question: With U104C U130C as the variant, how does the self-cleavage read?
Answer: 1.71

Question: Which self-cleavage does the source give for U109A A140G here?
Answer: 0.96

Question: With U100C C110A as the variant, how does the self-cleavage read?
Answer: 1.77

Question: For U108C G137A, which self-cleavage is on record?
Answer: 0.89

Question: For U104G U132A, which self-cleavage is on record?
Answer: 1.06

Question: With U109A A138G as the variant, how does the self-cleavage read?
Answer: 0.7

Question: Which self-cleavage does the source give for G105U G144A here?
Answer: 1.31

Question: With U109A A136U as the variant, how does the self-cleavage read?
Answer: 2.61

Question: With U109A A136G as the variant, how does the self-cleavage read?
Answer: 1.4

Question: For C103U G114A, which self-cleavage is on record?
Answer: 1.19

Question: With U108C G125A as the variant, how does the self-cleavage read?
Answer: 1.22

Question: For U108C A117U, which self-cleavage is on record?
Answer: 1.83

Question: With U104C A124G as the variant, how does the self-cleavage read?
Answer: 2.57

Question: For C103U A117C, which self-cleavage is on record?
Answer: 2.49

Question: With C103U A117G as the variant, how does the self-cleavage read?
Answer: 1.41

Question: Which self-cleavage does the source give for U100G A142G here?
Answer: 1.01

Question: For U102C A107G, which self-cleavage is on record?
Answer: 1.67

Question: For U102C A107U, which self-cleavage is on record?
Answer: 0.42

Question: For G106C U108C, which self-cleavage is on record?
Answer: 2.2

Question: For U100C C146U, which self-cleavage is on record?
Answer: 1.71

Question: Which self-cleavage does the source give for A107U U112C here?
Answer: 1.84

Question: Which self-cleavage does the source give for A107C U109C here?
Answer: 2.7

Question: For U104C A107G, which self-cleavage is on record?
Answer: 1.86

Question: Which self-cleavage does the source give for U108G U119C here?
Answer: 2.59

Question: With G105U U109C as the variant, how does the self-cleavage read?
Answer: 1.93

Question: For C103A U112C, which self-cleavage is on record?
Answer: 1.01

Question: With C103A U112G as the variant, how does the self-cleavage read?
Answer: 0.72

Question: For U100C A124U, which self-cleavage is on record?
Answer: 2.22

Question: With U100C A124G as the variant, how does the self-cleavage read?
Answer: 1.32

Question: With U100C A142C as the variant, how does the self-cleavage read?
Answer: 2.2

Question: Which self-cleavage does the source give for U104A A107G here?
Answer: 0.9

Question: With A107G C131U as the variant, how does the self-cleavage read?
Answer: 1.83

Question: For U108C G139A, which self-cleavage is on record?
Answer: 0

Question: For A107C U108A, which self-cleavage is on record?
Answer: 1.36

Question: With A107U C113A as the variant, how does the self-cleavage read?
Answer: 1.68

Question: For U100C U108A, which self-cleavage is on record?
Answer: 1.42

Question: For A107G U143C, which self-cleavage is on record?
Answer: 1.38

Question: With A107G A117G as the variant, how does the self-cleavage read?
Answer: 1.85

Question: Which self-cleavage does the source give for A107G A117C here?
Answer: 0.66

Question: With A107G A117U as the variant, how does the self-cleavage read?
Answer: 1.85

Question: For U108C U143A, which self-cleavage is on record?
Answer: 0.26

Question: For C101U G139U, which self-cleavage is on record?
Answer: 1.64

Question: For A107G U134A, which self-cleavage is on record?
Answer: 1.45

Question: For A107G U134C, which self-cleavage is on record?
Answer: 1.33

Question: Which self-cleavage does the source give for G105A A117U here?
Answer: 1.74

Question: For G105A A117G, which self-cleavage is on record?
Answer: 1.59

Question: Which self-cleavage does the source give for U104C A136G here?
Answer: 1.62

Question: For A107U A117C, which self-cleavage is on record?
Answer: 2.32

Question: Which self-cleavage does the source give for U102C C118U here?
Answer: 1.59

Question: With U102C C120A as the variant, how does the self-cleavage read?
Answer: 2.26

Question: With U102C C120U as the variant, how does the self-cleavage read?
Answer: 1.71

Question: For U104C G135A, which self-cleavage is on record?
Answer: 1.52

Question: For U100G U130C, which self-cleavage is on record?
Answer: 2.21

Question: With U108A U115A as the variant, how does the self-cleavage read?
Answer: 0.6

Question: Which self-cleavage does the source give for U109A U132C here?
Answer: 1.37

Question: With A107G U115C as the variant, how does the self-cleavage read?
Answer: 1.99

Question: With A107G U115A as the variant, how does the self-cleavage read?
Answer: 0.95

Question: Which self-cleavage does the source give for U102C A138G here?
Answer: 1.42

Question: With G106A U119C as the variant, how does the self-cleavage read?
Answer: 1.58

Question: For G106A U119A, which self-cleavage is on record?
Answer: 0.75

Question: For U102C A124G, which self-cleavage is on record?
Answer: 1.11

Question: For G106A U108C, which self-cleavage is on record?
Answer: 1.61

Question: Which self-cleavage does the source give for A107G A138U here?
Answer: 1.44

Question: Which self-cleavage does the source give for U100C A141G here?
Answer: 1.9

Question: For U100G A107G, which self-cleavage is on record?
Answer: 1.31

Question: For U109A U115C, which self-cleavage is on record?
Answer: 1.43

Question: With U109A U115A as the variant, how does the self-cleavage read?
Answer: 1.47

Question: With G105A A141G as the variant, how does the self-cleavage read?
Answer: 0.87

Question: Which self-cleavage does the source give for G105A A141U here?
Answer: 0

Question: With U100C C118A as the variant, how does the self-cleavage read?
Answer: 2

Question: Which self-cleavage does the source give for U100G U119C here?
Answer: 2.45

Question: For G105U A140U, which self-cleavage is on record?
Answer: 1.53

Question: With U102A A129G as the variant, how does the self-cleavage read?
Answer: 1.72

Question: For U100C A129G, which self-cleavage is on record?
Answer: 1.99

Question: With U102C C128U as the variant, how does the self-cleavage read?
Answer: 1.67

Question: Which self-cleavage does the source give for U102C C128A here?
Answer: 0.39

Question: For A107U A140G, which self-cleavage is on record?
Answer: 1.58

Question: Which self-cleavage does the source give for U104C C145G here?
Answer: 2.3

Question: Which self-cleavage does the source give for U104C U134G here?
Answer: 0.75

Question: For G106A G135U, which self-cleavage is on record?
Answer: 1.88

Question: Which self-cleavage does the source give for U100C C111U here?
Answer: 1.48
